Results on 7 molecules are retold here after patent US12325747 (University of Texas, dated 2025).

Read-outs that look alike come from different tables or passages of the source.

Test [1] concerns the target T1, mouse PD-L1 protein (mouse, UniProt Q9EP73 19-238, limits assumed).
T1 construct: also called murine PD-L1
Put plainly: lower panel, MFI against Ab (nM): flow cytometry on CHO cells with murine PD-L1. The panel has no title; murine PD-L1 follows from paragraph 175. How it is done:
(§1) Antibody Activity. Varying concentrations of PD-L1 antibodies, with human IgG1 backbones, were added to CHO cells expressing either human or murine PD-L1 (CHO-PD-L1 cells). Binding was detected by addition of anti-human IgG1 secondary antibody conjugated to phycoerythrin. FACS analysis was performed, detecting phycoerythrin to determine fluorescence activity at a variety of antibody concentrations. EC50 was calculated using GraphPad Prism® software.

For test [2], the target named is T2, PD-L1 on CHO-PD-L1 cells (human, UniProt Q9NZQ7 19-290). Description: cell-based or functional assay.
Test [3] has as its target T2, PD-L1 on CHO-PD-L1 cells. Description: upper panel, MFI against Ab (nM): flow cytometry on CHO cells with PD-L1, anti-human IgG1-PE secondary. The panel has no title; human PD-L1 follows from paragraph 175 (all three bind human PD-L1). How it is done: as §1
Test [4] deals with T3, Human PD-L1-HIS (human, UniProt Q9NZQ7 19-238).
T3 construct: also called HIS-tagged protein (human PD-L1)
Description: Octet tandem competition on HIS-tagged human PD-L1; competitor Avelumab. How it is done: (§2) Epitope binning of PD-L1 antibodies. Binding specificity of a variety of PD-L1 antibodies were compared using a binding competition assay conducted using the ForteBio Octet® platform. Target HIS-tagged protein (human PD-L1) is loaded onto pre-charged Nickel NTA Biosensors at 1 μg/mL. The first Ab1 is saturated on the target-loaded biosensor at 100 nM, and a reference (bufer only) well is included to determine maximal Ab2 binding signal. The second Ab2 is screened for binding signal also at 100 nM, and Ab1 is included to determine background self-blocking signal. Data Analysis HT 9.0 software is used to generate a matrix of raw signal response of Ab2 binding that is then transformed to be expressed as a percentage of the unblocked Ab2 binding signal. Less than 15% response is considered competitive blocking.

In the next test the target is Cyno PD-L1-Fc (cyno, UniProt G7PSE7 19-238). Put plainly: ForteBio Octet BLI; IgG on AHQ sensors, 100 nM antigen; avid. How it is done:
(§3) ForteBio K_D measurements—ForteBio affinity measurements were performed on an Octet RED384 generally as previously described (see, e.g., Estep et al., Mabs 5(2), 270-278 (2013)). Briefly, ForteBio affinity measurements were performed by loading IgGs on-line onto AHQ sensors. Sensors were equilibrated off-line in assay buffer for 30 min and then monitored on-line for 60 seconds for baseline establishment. Sensors with loaded IgGs were exposed to 100 nM antigen for 3 minutes, and afterwards were transferred to assay buffer for 3 min for off-rate measurement. For monovalent affinity assessment Fabs were used instead of IgGs. For this assessment the unbiotinylated Fc fusion antigen was loaded on-line onto the AHQ sensors. Sensors were equilibrated off-line in assay buffer for 30 min and then monitored on-line for 60 seconds for baseline establishment. Sensors with loaded antigen were exposed to 100 nM Fab for 3 minutes, and afterwards they were transferred to assay buffer for 3 min for off-rate measurement. All kinetics were analyzed using the 1:1 binding model.

The target in test [5] is T4, Human PD-L1-Fc (human, UniProt Q9NZQ7 19-238).
T4 construct: also called Fc fusion antigen; not shown: Fc part, not described
The test is described as above. How it is done: as §3

In the next test the target is T5, Mouse PD-L1-Fc (mouse, UniProt Q9EP73 19-238, limits assumed).
T5 construct: not shown: Fc part, not described
The test is described as above. How it is done:
as §3

The target of test [6] is T3, Human PD-L1-HIS. Description: Octet tandem competition on HIS-tagged human PD-L1; competitor Atezolizumab. How it is done: as §2
Test [7] addresses T3, Human PD-L1-HIS. Description: ForteBio Octet BLI; IgG on AHQ sensors, 100 nM antigen; column head says Avid. How it is done: as §3
Test [8] concerns the target T3, Human PD-L1-HIS. Description: Octet tandem competition on HIS-tagged human PD-L1; competitor Durvalumab. How it is done:
as §2

The target of test [9] is T4, Human PD-L1-Fc. Description: ForteBio Octet BLI; Fc fusion antigen on AHQ sensors, 100 nM Fab; monovalent. How it is done: as §3
Test [10] has as its target T2, PD-L1 on CHO-PD-L1 cells. Put plainly: cell-based or functional assay. This is another data set of the same source.
The target in test [11] is T4, Human PD-L1-Fc. Put plainly: ForteBio Octet BLI (row ForteBio-KD); antigen and unit inferred, taken from Table 5.
Test [12] deals with T1, mouse PD-L1 protein. Description: lower panel, MFI against Ab (nM): flow cytometry on CHO cells with murine PD-L1, anti-human IgG1-PE secondary. The panel has no title; murine PD-L1 follows from paragraph 175 (only ADI-20227 binds murine PD-L1 well). How it is done: as §1
Test [13] has as its target T2, PD-L1 on CHO-PD-L1 cells. Description: cell-based or functional assay. The source holds these as a separate data set.

Cyno PD-L1-Fc, sequence (G7PSE7 entry or part of it limits assumed): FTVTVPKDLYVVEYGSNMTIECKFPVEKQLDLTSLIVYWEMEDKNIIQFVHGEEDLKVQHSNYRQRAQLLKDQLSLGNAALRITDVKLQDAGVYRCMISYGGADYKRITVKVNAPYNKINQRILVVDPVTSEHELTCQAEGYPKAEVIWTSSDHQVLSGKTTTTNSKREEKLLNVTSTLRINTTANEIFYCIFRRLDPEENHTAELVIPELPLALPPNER
T3 sequence (Q9NZQ7 19-238 limits assumed): as the sequence (G7PSE7 entry or part of it limits assumed) above, with T33A, S34A, N62S, Q68R, R82Q, L173F, A185T, I192T, L215H counted along it
T4 sequence (Q9NZQ7 19-238 limits assumed): as the sequence (G7PSE7 entry or part of it limits assumed) above, with T33A, S34A, N62S, Q68R, R82Q, L173F, A185T, I192T, L215H counted along it
T2 sequence (Q9NZQ7 19-290 limits assumed): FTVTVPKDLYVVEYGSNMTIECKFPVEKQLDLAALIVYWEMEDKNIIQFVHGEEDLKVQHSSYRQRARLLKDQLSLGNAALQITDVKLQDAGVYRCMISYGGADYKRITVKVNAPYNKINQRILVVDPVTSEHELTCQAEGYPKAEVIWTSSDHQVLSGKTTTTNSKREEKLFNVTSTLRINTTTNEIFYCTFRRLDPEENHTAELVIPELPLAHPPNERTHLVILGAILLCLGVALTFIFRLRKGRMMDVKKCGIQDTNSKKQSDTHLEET
T5 sequence (Q9EP73 19-238 limits assumed): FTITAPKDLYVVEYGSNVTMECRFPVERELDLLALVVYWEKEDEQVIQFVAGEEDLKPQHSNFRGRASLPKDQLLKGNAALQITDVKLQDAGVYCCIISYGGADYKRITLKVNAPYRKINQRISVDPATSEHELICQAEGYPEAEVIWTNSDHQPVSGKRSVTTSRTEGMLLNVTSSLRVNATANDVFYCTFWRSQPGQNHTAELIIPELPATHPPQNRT
T1 sequence (Q9EP73 19-238 limits assumed): as above

B1: ADI-20799 (antibody, human IgG1, V domains shown)
VH: QVQLVQSGAEVKKPGASVKVSCKASGYTFTGVYMHWVRQAPGQGLEWMGGIFPIGGTANYAQKFQGRVTITADESTSTAYMELSSLRSEDTAVYYCARDRTSGALYWGQGTLVTVSS
VL: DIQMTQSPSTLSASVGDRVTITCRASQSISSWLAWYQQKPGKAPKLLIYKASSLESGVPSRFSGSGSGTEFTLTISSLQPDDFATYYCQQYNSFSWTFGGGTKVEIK
Regarding B1, the binding result in the test with mouse PD-L1 protein [1] was “no binding (tested: about 700 nM)”. Besides, the “EC50 (read off the curve)” value with PD-L1 on CHO-PD-L1 cells [2] was approximately 0.5 nM. In the test with PD-L1 on CHO-PD-L1 cells [3], this molecule registered an EC50 of 1.31 nM.

B2: ADI-16403 (antibody, human IgG1, V domains shown)
VH: EVQLVESGGGLVQPGGSLRLSCAASGFTFSSYWMSWVRQAPGKGLEWVANIKSDGSEKYYVDSVKGRFTISRDNAKNSLYLQMNSLRAEDTAVYYCARVTYWADYMDVWGKGTTVTVSS
VL: DIQMTQSPSTLSASVGDRVTITCRASQSISSWLAWYQQKPGKAPKLLIYKASSLESGVPSRFSGSGSGTEFTLTISSLQPDDFATYYCQQSGSLPPTFGGGTKVEIK
notes: Tested as IgG; also called PD-L1-31; clone family 35
Take B2: the “percentage of the unblocked Ab2 binding signal” value (“percentage” below) came to 2.39% in the test with Human PD-L1-HIS [4], 0.75% with Human PD-L1-HIS [6] and 1.03% with Human PD-L1-HIS [8]. Further, the Kd was 0.792 nM with Cyno PD-L1-Fc, 0.317 nM with Human PD-L1-Fc [5] and 0.328 nM with Human PD-L1-HIS [7]. Further, in the test with Mouse PD-L1-Fc, the binding result is “no binding (tested: 100 nM)”. For the same molecule, the “EC50 (read off the curve)” value with PD-L1 on CHO-PD-L1 cells [2] is approximately 2 nM.

B3: ADI-16403 Fab (Fab, V domains shown)
VH: EVQLVESGGGLVQPGGSLRLSCAASGFTFSSYWMSWVRQAPGKGLEWVANIKSDGSEKYYVDSVKGRFTISRDNAKNSLYLQMNSLRAEDTAVYYCARVTYWADYMDVWGKGTTVTVSS
VL: DIQMTQSPSTLSASVGDRVTITCRASQSISSWLAWYQQKPGKAPKLLIYKASSLESGVPSRFSGSGSGTEFTLTISSLQPDDFATYYCQQSGSLPPTFGGGTKVEIK
notes: also called Fab of ADI-16403
In the test with Human PD-L1-Fc [9], B3 registered a Kd of 0.935 nM. In other words, the sub-nanomolar range.

B4: ADI-20803 (antibody, human IgG1, V domains shown)
VH: QVQLVQSGAEVKKPGSSVKVSCKASGGTFRLYAISWVRQAPGQGLEWMGSIIPGFGSANYAQKFQGRVTITADESTSTAYMELSSLRSEDTAVYYCARDGGGGTSAYSFDPWGQGTLVTVSS
VL: EIVLTQSPATLSLSPGERATLSCRASQSVSSYLAWYQQKPGQAPRLLIYDASNRATGIPARFSGSGSGTDFTLTISSLEPEDFAVYYCQQSINFPYTFGGGTKVEIK
notes: Tested as IgG; also called PDL1-1-12; PLD1-1-12
Consider B4, for which the “percentage” value was 3.14% with Human PD-L1-HIS [4], 1.86% in the test with Human PD-L1-HIS [6] and 2.38% with Human PD-L1-HIS [8]. The Kd was found to be 0.196 nM with Cyno PD-L1-Fc, 0.188 nM in the test with Human PD-L1-Fc [5], 5.65 nM in the test with Mouse PD-L1-Fc and 0.0092 nM in the test with Human PD-L1-HIS [7]. Also, the EC50 in the test with PD-L1 on CHO-PD-L1 cells [3] turned out to be 0.7 nM. Also, the “EC50 (read off the curve)” value with PD-L1 on CHO-PD-L1 cells [10] is approximately 3 nM.

B5: ADI-20803 Fab (Fab, V domains shown)
VH: QVQLVQSGAEVKKPGSSVKVSCKASGGTFRLYAISWVRQAPGQGLEWMGSIIPGFGSANYAQKFQGRVTITADESTSTAYMELSSLRSEDTAVYYCARDGGGGTSAYSFDPWGQGTLVTVSS
VL: EIVLTQSPATLSLSPGERATLSCRASQSVSSYLAWYQQKPGQAPRLLIYDASNRATGIPARFSGSGSGTDFTLTISSLEPEDFAVYYCQQSINFPYTFGGGTKVEIK
notes: also called Fab of ADI-20803
In the test with Human PD-L1-Fc [9], B5 returned a Kd of 0.226 nM.

B6: ADI-20227 (antibody, human IgG1, V domains shown)
VH: QVQLQESGPGLVKPSQTLSLTCTVSGGSIVSGGLYWSWIRQHPGKGLEWIGYIYYAGVTYYNPSLKSRVTISVDTSKNQFSLKLSSVTAADTAVYYCARGPRMGLAGMDVWGQGTTVTVSS
VL: DIQMTQSPSSVSASVGDRVTITCRASQGISSWLAWYQQKPGKAPKLLIYAASSLQSGVPSRFSGSGSGTDFTLTISSLQPEDFATYYCQQANSFPITFGGGTKVEIK
notes: Tested as IgG; also called PD-L1-C1-2; clone family cLC
B6: the Kd with Human PD-L1-Fc [11] stood at 0.179 nM; with Cyno PD-L1-Fc, 0.192 nM; with Human PD-L1-Fc [5], 0.179 nM; with Mouse PD-L1-Fc it was 0.101 nM. In addition, the “percentage” value was 0.37% in the test with Human PD-L1-HIS [4], -0.52% in the test with Human PD-L1-HIS [6] and 0.65% with Human PD-L1-HIS [8]. The EC50 with PD-L1 on CHO-PD-L1 cells [3] was 1.12 nM; in the test with mouse PD-L1 protein [12], 1.13 nM. The “EC50 for restoration of PD-L1:PD-1 repressed Jurkat T cell activity (row label IC50)” value with PD-L1 on CHO-PD-L1 cells [13] came out at 0.295 nM.

B7: ADI-20227 Fab (Fab, V domains shown)
VH: QVQLQESGPGLVKPSQTLSLTCTVSGGSIVSGGLYWSWIRQHPGKGLEWIGYIYYAGVTYYNPSLKSRVTISVDTSKNQFSLKLSSVTAADTAVYYCARGPRMGLAGMDVWGQGTTVTVSS
VL: DIQMTQSPSSVSASVGDRVTITCRASQGISSWLAWYQQKPGKAPKLLIYAASSLQSGVPSRFSGSGSGTDFTLTISSLQPEDFATYYCQQANSFPITFGGGTKVEIK
Turning to B7, binding with Human PD-L1-Fc [9] was characterised by a dissociation constant (Kd) of 0.915 nM.
